# Patent US20250270343A1 (Alector, published 2025)
# Where a chain is given by its changes, count along the chain named.
# T1: mouse GPNMB endogenously expressed on B16F10 cells (mouse, UniProt Q99P91 23-574)
# T1 construct: whole, on cells; also called moGPNMB
# T1 sequence (looked up): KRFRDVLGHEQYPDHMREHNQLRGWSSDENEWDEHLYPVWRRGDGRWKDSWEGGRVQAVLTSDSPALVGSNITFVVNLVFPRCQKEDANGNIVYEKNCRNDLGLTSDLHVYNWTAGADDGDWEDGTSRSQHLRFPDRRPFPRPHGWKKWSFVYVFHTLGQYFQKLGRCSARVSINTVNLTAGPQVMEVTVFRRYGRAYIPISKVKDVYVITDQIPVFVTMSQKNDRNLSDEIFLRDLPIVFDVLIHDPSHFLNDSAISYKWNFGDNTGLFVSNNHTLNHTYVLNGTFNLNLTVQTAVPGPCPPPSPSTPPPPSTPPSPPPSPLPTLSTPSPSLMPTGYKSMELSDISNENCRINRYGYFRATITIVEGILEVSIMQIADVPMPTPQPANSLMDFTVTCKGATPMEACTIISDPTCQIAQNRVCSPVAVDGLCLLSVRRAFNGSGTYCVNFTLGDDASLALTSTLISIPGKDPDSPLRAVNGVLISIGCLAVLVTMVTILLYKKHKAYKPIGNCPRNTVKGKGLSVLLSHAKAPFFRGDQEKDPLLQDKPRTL
# B1: anti-GPNMB antibody GPN-42 (antibody, human IgG1, V domains shown)
# VH: DVKLVESGEDLVKPGGSLKLSCAASGFTFSSYAMSWVRQTPEKRLEWVAYISSGGDYIYYADTVKGRFTISRDNARNTLYLQMSSLKSEDTAMYYCTRDRYYDYDVRDYYTMDYWGQGTSVTVSS
# VL: DVMMTQTPLSLPVSLGDQASISCRSSQSLVHSNGNTYLHWFLQKPGQSPKLLIFRVSNRFSGVPDRFSGRGSGTDFTLKISRVEAEDLGVYFCSQTTHVPRTFGGGTTLEIK
# notes: chimeric
# B2: anti-GPNMB antibody GPN-43 (antibody, human IgG1, V domains shown)
# VH: EVQLQQSGPELVKPGASVKISCKASGYTFTDYYMNWVRQSHGKSLEWIGDINPYHGGSTYNQKIKVKATLTVDKSSSTAYMELRSLTSEDSAVYYCARNWPYFDYWGQGTTLTVSS
# VL: DIQMTQSPASLSASVGETVTITCRASENIYSFLVWYQQKQGKSPQLLVYNAKTLAEGVPSRFSGSGSGTQFSLKISSLQPEDFGSYYCQHHFGTPPYTFGGGTKLEIK
# notes: chimeric
# B3: anti-GPNMB antibody GPN-41 (antibody, human IgG1, V domains shown)
# VH: QLQLQQSGTEVVKPGASVKIPCKASGYAFSSYWMNWVKQRPGKGLEWIGQIYPGDGDTNDNGKFEGKATLTVDKSSNTAYIQLSSLTSEDSAVYFCARSPLHLRGSMDYWGQGTSVTVSS
# VL: SIVMTQTPKFLLVSAGDRVTITCKASQSVSNDVAWFQQKPGQSPELLIYSASNRYTGVPDRFTASGYGTDFTFTISAVQAEDLAVYFCQQNYYSPFTFGGGTRLEIK
# notes: chimeric
# B4: anti-GPNMB antibody GPN-65 (antibody, human IgG1, V domains shown)
# VH: B3 VH
# VL: B3 VL with A64G, A77T
# notes: chimeric
# Target: T1, mouse GPNMB endogenously expressed on …
# Assay: FACS titration, B16F10 cells
# Protocol: Cell-based binding measurements were also performed to measure the apparent affinities of anti-GPNMB antibodies of the present disclosure to cell-surface expressed GPNMB. Serial dilutions of the monoclonal anti-GPNMB antibodies were added to 100,000 Freestyle293-huGPNMB+ or B16F10 cells and allowed to achieve binding equilibrium at 4° C. After addition of fluorescently labeled secondary antibody and brief washing steps, MFI values as a function of titrated antibody concentration was recorded via FACS analysis. Curves were fit using nonlinear regression analysis with Graphpad Prism 6 software.
binder,measurement,value
B1,EC50,76.5 nM
B2,EC50,36.2 nM
B3,EC50,2.62 nM
B4,EC50,3.23 nM
